{"source": "paper PMC4523182", "about": "“Biochemical Characterization of a Mycobacteriophage Derived DnaB Ortholog Reveals New Insight into the Evolutionary Origin of DnaB Helicases”", "molecules": {"B1": {"name": "fork substrate (oligo1/oligo2) (mixed)", "DNA 1": "GCCCTGATCACGGTACTCGGTTTTTTTTTTTTTTTTTTTTGGCTCCTCTAGACTCGACCG", "DNA 2": "CGGTCGAGTCTAGAGGAGCCTTTTTTTTTTTTTTTTTTTTTTTTTTTTTTTTTTTTTTTT"}, "B2": {"name": "60-mer (oligo2) (ssDNA)", "DNA": "B1 DNA 2"}}, "key": {"[1]": {"target": "Wildcat Gp80 (mycobacteriophage Wildcat)", "test": "SEC; analytical Superose 6 10/300 GL, FPLC, 0.4 ml/min, 40 mM Tris-HCl pH 7.5, 50 mM KCl, 2 mM DTT; Mw from a standard curve (thyroglobulin, beta-amylase, BSA, ovalbumin, cytochrome C)"}, "[2]": {"target": "Wildcat Gp80 (mycobacteriophage Wildcat)", "test": "dynamic light scattering; higher protein concentrations (1 uM unless otherwise stated), 50 mM Tris-HCl pH 8.0, 50 mM KCl, 2 mM DTT, 1 mM MgCl2, 25°C; weight average hydrodynamic radius; no cofactor; oligomer also kept with 4 mM AMP-PNP and with 4 mM ATP plus 24 uM 41 mer ssDNA"}, "[3]": {"target": "T1, WCGp80 (Wildcat Gp80, DnaB-type helicase) (Mycobacteriophage Wildcat, UniProt Q19XY0 1-441)", "T1 sequence": "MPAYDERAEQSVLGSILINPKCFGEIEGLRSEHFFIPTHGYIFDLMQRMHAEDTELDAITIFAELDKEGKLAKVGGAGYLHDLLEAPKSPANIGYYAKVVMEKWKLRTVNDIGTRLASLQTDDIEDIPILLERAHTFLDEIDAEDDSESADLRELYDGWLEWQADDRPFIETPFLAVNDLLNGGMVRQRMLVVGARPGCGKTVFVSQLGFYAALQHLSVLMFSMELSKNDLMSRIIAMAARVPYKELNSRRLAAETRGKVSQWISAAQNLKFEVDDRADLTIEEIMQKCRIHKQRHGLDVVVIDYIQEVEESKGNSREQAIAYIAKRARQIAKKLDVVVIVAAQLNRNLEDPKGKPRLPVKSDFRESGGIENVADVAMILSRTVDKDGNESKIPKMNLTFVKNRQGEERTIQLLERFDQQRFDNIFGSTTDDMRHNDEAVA", "test": "fluorescence polarization; one-site non-cooperative fit; Binding buffer, pH and temperature not given in the material; Trp quenching ex 280/em 340 nm (helicase assay buffer E: 50 mM Tris-HCl pH 8.0, 50 mM KCl, 2 mM DTT, 0.25 mg/ml BSA, 4 mM MgCl2, 4 mM ATP, 4% sucrose, 37 C)", "details": "protein: recombinant; tags: N-terminal His6 (pQE30); chain copies: 6; label: 5' 6-FAM on oligo 2; fork 20 bp stem; 40 nt 5' tail on oligo1 and 40 nt 3' tail on oligo2"}, "[4]": {"target": "T1, WCGp80 (Wildcat Gp80, DnaB-type …)", "test": "tryptophan fluorescence quenching; 40 nM protein; S6 Fig legend gives 152 nM; Binding buffer, pH and temperature not given in the material; Trp quenching ex 280/em 340 nm (helicase assay buffer E: 50 mM Tris-HCl pH 8.0, 50 mM KCl, 2 mM DTT, 0.25 mg/ml BSA, 4 mM MgCl2, 4 mM ATP, 4% sucrose, 37 C)", "details": "protein: recombinant; tags: N-terminal His6 (pQE30); chain copies: 6; single strand"}, "[5]": {"target": "T1, WCGp80 (Wildcat Gp80, DnaB-type …)", "test": "tryptophan fluorescence quenching; 40 nM protein; S6 Fig legend gives 56.44 nM; Binding buffer, pH and temperature not given in the material; Trp quenching ex 280/em 340 nm (helicase assay buffer E: 50 mM Tris-HCl pH 8.0, 50 mM KCl, 2 mM DTT, 0.25 mg/ml BSA, 4 mM MgCl2, 4 mM ATP, 4% sucrose, 37 C)", "details": "protein: recombinant; tags: N-terminal His6 (pQE30); chain copies: 6; single strand"}}, "data": [{"molecule": "Wildcat Gp80 (enzyme)", "values": [{"measurement": "stoichiometry N", "setting": "[1]", "result": 6}, {"measurement": "stoichiometry N", "setting": "[2]", "result": 6}]}, {"molecule": "B1", "values": [{"measurement": "Kd", "setting": "[3]", "result": 9.5, "unit": "nM"}]}, {"molecule": "B2", "values": [{"measurement": "Kd", "setting": "[4]", "result": 164, "unit": "nM"}]}, {"molecule": "TCGAGCTCGGTACCCGGGGATCCTCTAGAGTCGACCTGCAGG (ssDNA)", "note": "[41-mer]", "values": [{"measurement": "Kd", "setting": "[5]", "result": 58, "unit": "nM"}]}]}
